PMC12748987

Assays:
[1] = target: GIRK1/2 heterotetrameric channel (GIRK1 with GIRK2) (not stated | mouse) (UniProt P63251)
[2] = target: GIRK2 homotetrameric channel (mouse GIRK2A) (mouse)
[3] = target: GIRK2 homotetrameric channel (mouse GIRK2A) (mouse); remark: listed apart in the source
[4] = target: GIRK1/2HA heterotetrameric channel (GIRK1 with GIRK2HA) (not stated | mouse) (UniProt P63251)
[5] = target: GIRK1/2 heterotetrameric channel (GIRK1 with GIRK2) (not stated | mouse) (UniProt P63251); remark: listed apart in the source
[6] = target: GIRK2HA homotetrameric channel (HA-tagged GIRK2) (mouse)

Row | time constant of the single-exponential decay of channel activity (NPo) after excision of the patch into Gβγ-free bath solution with ATP and Na+ [1] [min] | Kd, WTM model fit with fixed µ = 0.3 of whole-cell currents of GIRK2 or GIRK2HA against Gβ·YFPGγ surface density (mean of experiments) [2] [µM] | Kd, WTM model fit with fixed µ = 0.44 of whole-cell currents of GIRK2 or GIRK2HA against Gβ·YFPGγ surface density (mean of experiments) [2] [µM] | Kd, WTM model fit with fixed µ = 0.3 of single-channel Po against Gβ·YFPGγ surface density [3] [µM] | Kd, WTM model fit (µ = 0.3) of whole-cell currents against Gβ·YFPGγ surface density in individual oocytes (Fig. 4b, experiment #4) [4] [µM] | Kd, WTM model fit (µ = 0.3) of whole-cell currents against Gβ·YFPGγ surface density, mean of all experiments [5] [µM] | Kd, WTM model fit (µ = 0.3) of whole-cell currents against Gβ·YFPGγ surface density in individual oocytes (Fig. 4b, experiment #4) [6] [µM] | Substance
1 | > 2 |  |  |  |  |  |  | Gβγ (Gβ1γ2) coexpressed in Xenopus oocytes (from UniProt P62873 1-340; P59768 1-71) (complex)
2 |  | 31 | 11 | 17.3 | 9 | 5.5 | 45 | Gβ·YFPGγ (Gβ1 coexpressed with N-terminally YFP-labeled Gγ2) (from UniProt P62873 1-340; P59768 1-71) (complex)
